For 1 substance, Kd results are on record in PMC2601033.

pKd: −log10 of the molar value.

Holding throughout (test): SPR
What all share (settings): biotin (Biotin DecaLabel); SPR: PBS + 0.05% Tween 20, 25 C, 10 ul/min, SA chip (BIAcore 3000); ELISA: DNA coated at 10 ug/ml in Reacti-bind DNA coating solution, anti-GST detection …
(In general: SPR reads the build-up and loss of mass on a sensor chip optically.)

Data set [1] relates to APL_1406, GST removed (Actinobacillus pleuropneumoniae serovar 15 HS143?).
In data set [2] the test system is Aa1426, GST removed (Aggregatibacter (Actinobacillus) actinomycetemcomitans HK1651 (JP2 clone)?).
In data set [3] the test system is ComE1 (PM1665), GST removed (Pasteurella multocida NCTC 10322/ATCC 43137?).
Data set [4] deals with Hi1008, GST removed (Haemophilus influenzae NCTC 8470/ATCC 9332 Pittman type D?).
Data set [5] relates to Ms0826, GST removed (M. succiniproducens).

As a reminder, the pKd is −log10 of the Kd, conventionally taken in molar units. Consider pUC19 (biotinylated), for which the pKd is 5.40 in data set [1]; 4.80 in data set [2]; 5.14 in data set [3]; 5.30 in data set [4]; 4.34 in data set [5].
